The values that follow come from US9724381B2 (THE ADMINISTRATORS OF THE TULANE EDUCATIONAL FUND, priority 2009, dated 2017).

Values joined by “and” are separate entries in the source; they are usually repeats but may differ in a detail not shown here. Equal values may be shown once. Where no end group is shown, it is not given here. [ ]: non-standard residue; d: D form. d1Nal = N[C@H](Cc1cccc2ccccc12)C(=O)O; d2Nal = N[C@H](Cc1ccc2ccccc2c1)C(=O)O; dCha = N[C@H](CC1CCCCC1)C(=O)O; Nle = CCCC[C@H](N)C(=O)O

For this assay, the target named is Ghrelin/GHRP/GHS Receptor (Rattus norvegicus, UniProt O08725). Nature of the assay: In vivo GH release in rat (serum GH by RIA after i.v. peptide). Particulars: for Unstimulated Basal GH release from rats: Table 5; for Unstimulated Basal GH Release from rat: Table 3; for Stimulated (S) GH release from rats / Unstimulated GH release from rats: Table 4, pentobarbital rats; for Stimulated (S) GH release from rats: P + S, stimulator 1 μg; for Unstimulated GH release from rats: −S. As to the method:
For the in vivo assay of GH Release in rat, immature female Sprague Dawley rats were obtained from Charles River from Wilmington, Mass. After arrival they were housed at 25° C. with a 14:10 h light:dark cycle. Water and Purina rat chow were available at libitum. Pups were weaned at 21 days of age.
Immature twenty six day old female Sprague Dawley rats, 3-6 rats per treatment dose, were pretreated with pentobarbital 20 minutes before iv injection of vehicle/peptide or peptide plus stimulator. Injection was made as a 0.1 ml solution. For the non-pentobarbital treated rat assay, peptides were administered iv into the tail vein of conscious rats. All animals were sacrificed by guillotine after iv peptide or vehicle. Trunk blood was collected at +10-15 minutes […], allowed to clot, centrifuged and serum stored until assayed for GH levels by RIA. The GH RIA reagents were distributed by the NIH. Control data was collected from rats treated with only the corresponding vehicle in the absence of peptide or stimulator. Control stimulated data was collected from rats treated with stimulator alone in the absence of any peptide.

The mark [1] stands for this setting: Table 2, peptide antagonist 30 μg i.v. + stimulator DAla-DβNal-Ala-Trp-DPhe-Lys-NH2 0.3 μg.
Where [2] appears, read: Table 2, peptide antagonist 10 μg i.v. + stimulator DAla-DβNal-Ala-Trp-DPhe-Lys-NH2 1 μg.
[3] abbreviates: Table 2, peptide antagonist 30 μg i.v. + stimulator DAla-DβNal-Ala-Trp-DPhe-Lys-NH2 1 μg.
Where [4] appears, read: Table 2, peptide antagonist 100 μg i.v. + stimulator DAla-DβNal-Ala-Trp-DPhe-Lys-NH2 1 μg.
[5] abbreviates: peptide antagonist alone 1 μg i.v.
[6] abbreviates: peptide antagonist alone 3 μg i.v.
Where [7] appears, read: peptide antagonist alone 10 μg i.v.

Ghrelin/GHRP/GHS Receptor, sequence (O08725 whole entry): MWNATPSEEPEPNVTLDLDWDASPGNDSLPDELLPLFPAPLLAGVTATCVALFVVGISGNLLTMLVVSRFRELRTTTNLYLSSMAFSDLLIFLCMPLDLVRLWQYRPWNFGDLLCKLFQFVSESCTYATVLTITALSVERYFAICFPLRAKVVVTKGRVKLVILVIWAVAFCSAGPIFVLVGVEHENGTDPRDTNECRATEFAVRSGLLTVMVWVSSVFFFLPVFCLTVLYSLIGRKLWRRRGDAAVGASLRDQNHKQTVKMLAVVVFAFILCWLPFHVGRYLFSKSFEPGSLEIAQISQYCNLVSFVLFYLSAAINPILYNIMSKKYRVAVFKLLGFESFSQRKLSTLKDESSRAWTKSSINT

Regarding “Ala-His-DTrp-DLys-Trp-DPhe-Lys-NH2 (AH[dW][dK]W[dF]K-NH2; N-terminus assumed; SMILES C[C@H](N)C(=O)N[C@@H](Cc1c[nH]cn1)C(=O)N[C@H](Cc1c[nH]c2ccccc12)C(=O)N[C@H](CCCCN)C(=O)N[C@@H](Cc1c[nH]c2ccccc12)C(=O)N[C@H](Cc1ccccc1)C(=O)N[C@@H](CCCCN)C(N)=O)”, under setting [1], the “Stimulated GH release from rat” value amounted to 1487 ± 397 ng/mL.

In the case of “Alaψ[CH2NH]-DβNal-Ala-Trp-DPhe-Lys-NH2 (A[d2Nal]AW[dF]K-NH2; also: Ala1-DβNal2 reduced bond ψ[CH2NH])”, the “Stimulated GH release from rat” value by setting is: (Table 2, peptide antagonist 3 μg i.v. + stimulator DAla-DβNal-Ala-Trp-DPhe-Lys-NH2 1 μg) 2771 ± 157 ng/mL; under setting [2], 2341 ± 416 ng/mL; under setting [3], 1948 ± 450 ng/mL; under setting [4], 1639 ± 221 ng/mL.

In the case of “Alaψ[CH2NH]His-DTrp-Ala-Trp-DPhe-Lys-NH2 (AH[dW]AW[dF]K-NH2; also: reduced bond ψ[CH2NH] between Ala1 and His2)”, the “Unstimulated Basal GH release from rats” value is, setting by setting: under setting [5], 127 ± 32 ng/mL; under setting [6], 147 ± 37 ng/mL.

For the substance “DAla-Ala-DAla-DTrp-Phe-Lys-NH2 ([dA]A[dA][dW]FK-NH2; N-terminus assumed; SMILES C[C@H](NC(=O)[C@@H](C)N)C(=O)N[C@H](C)C(=O)N[C@H](Cc1c[nH]c2ccccc12)C(=O)N[C@@H](Cc1ccccc1)C(=O)N[C@@H](CCCCN)C(N)=O)”, the “Unstimulated Basal GH release from rats” value reads like this: under setting [7], 228 ± 76 ng/mL; (peptide antagonist alone 30 μg i.v.) 172 ± 14 ng/mL; (peptide antagonist alone 100 μg i.v.) 153 ± 45 ng/mL.

With “DAla-DcyclohexylAla-Ala-Phe-DPhe-Nle-NH2 ([dA][dCha]AF[dF][Nle]-NH2; N-terminus assumed; SMILES CCCC[C@H](NC(=O)[C@@H](Cc1ccccc1)NC(=O)[C@H](Cc1ccccc1)NC(=O)[C@H](C)NC(=O)[C@@H](CC1CCCCC1)NC(=O)[C@@H](C)N)C(N)=O)”, the “Unstimulated Basal GH Release from rat” value (peptide alone 1 μg i.v.) came to 435 ± 152 ng/mL; the “Unstimulated Basal GH Release from rat” value (peptide alone 3 μg i.v.) was 195 ± 34 ng/mL; the “Unstimulated Basal GH Release from rat” value (peptide alone 10 μg i.v.) stood at 250 ± 41 ng/mL; the “Unstimulated Basal GH Release from rat” value (peptide alone 30 μg i.v.) was found to be 393 ± 51 ng/mL; the “Unstimulated Basal GH Release from rat” value (peptide alone 100 μg i.v.) stood at 697 ± 75 ng/mL.

For “DAla-DβNal-Ala-Ala-DAla-Lys-NH2 ([dA][d2Nal]AA[dA]K-NH2; N-terminus assumed; SMILES C[C@H](NC(=O)[C@H](C)NC(=O)[C@@H](Cc1ccc2ccccc2c1)NC(=O)[C@@H](C)N)C(=O)N[C@H](C)C(=O)N[C@@H](CCCCN)C(N)=O)”, the “Unstimulated Basal GH Release from rat” value is, setting by setting: (peptide alone 3 μg i.v.) 235 ± 43 ng/mL; (peptide alone 10 μg i.v.) 178 ± 33 ng/mL; (peptide alone 30 μg i.v.) 172 ± 15 ng/mL; (peptide alone 100 μg i.v.) 185 ± 39 ng/mL.

“DAla-DβNal-Ala-Thr-DThr-Lys-NH2 ([dA][d2Nal]AT[dT]K-NH2; N-terminus assumed; SMILES C[C@H](NC(=O)[C@@H](Cc1ccc2ccccc2c1)NC(=O)[C@@H](C)N)C(=O)N[C@H](C(=O)N[C@@H](C(=O)N[C@@H](CCCCN)C(N)=O)[C@H](C)O)[C@@H](C)O)”: the “Unstimulated Basal GH Release from rat” value by setting is: (peptide alone 3 μg i.v.) 255 ± 38 ng/mL; (peptide alone 30 μg i.v.) 288 ± 31 ng/mL; (peptide alone 100 μg i.v.) 386 ± 57 ng/mL.

For “DAla-DβNal-Ala-Trp-DPhe-Lys-NH2 ([dA][d2Nal]AW[dF]K-NH2) [reference compound]”, the “Stimulated Control 0.3 μg, GH release from rat” value (Table 2, stimulator DAla-DβNal-Ala-Trp-DPhe-Lys-NH2 alone, 0.3 μg) is 2253 ± 252 ng/mL and 1412 ± 400 ng/mL. Also, for the setting “Table 2, stimulator DAla-DβNal-Ala-Trp-DPhe-Lys-NH2 alone, 1 μg”, the “Stimulated Control 1 μg, GH release from rat” value is 3214 ± 276 ng/mL and 3105 ± 429 ng/mL and 2406 ± 288 ng/mL and 2825 ± 134 ng/mL and 3104 ± 429 ng/mL.

As for “DAla-DβNal-DAla-DTrp-Phe-Lys-NH2 ([dA][d2Nal][dA][dW]FK-NH2)”, the “Unstimulated Basal GH Release from rat” value runs as follows: (peptide alone 1 μg i.v.) 184 ± 55 ng/mL; (peptide alone 3 μg i.v.) 467 ± 201 ng/mL; (peptide alone 10 μg i.v.) 244 ± 107 ng/mL.

As to “DAla-DβNal-DLys-DTrp-Phe-Lys-NH2 ([dA][d2Nal][dK][dW]FK-NH2; N-terminus assumed; SMILES C[C@@H](N)C(=O)N[C@H](Cc1ccc2ccccc2c1)C(=O)N[C@H](CCCCN)C(=O)N[C@H](Cc1c[nH]c2ccccc12)C(=O)N[C@@H](Cc1ccccc1)C(=O)N[C@@H](CCCCN)C(N)=O)”, the “Stimulated GH release from rat” value stood at 2884 ± 828 ng/mL under setting [3] and 1198 ± 114 ng/mL under setting [4]. Moreover, the “Stimulated (S) GH release from rats” value (peptide 30 μg i.v.) worked out at 2864 ± 828 ng/mL and the “Stimulated (S) GH release from rats” value (peptide 100 μg i.v.) worked out at 1198 ± 114 ng/mL. Further, the “Unstimulated GH release from rats” value amounted to 323 ± 50 ng/mL (peptide 30 μg i.v.) and 812 ± 6 ng/mL (peptide 100 μg i.v.).

With “DLys-DβNal-Ala-Trp-DPhe-Lys-NH2 ([dK][d2Nal]AW[dF]K-NH2; N-terminus assumed; SMILES C[C@H](NC(=O)[C@@H](Cc1ccc2ccccc2c1)NC(=O)[C@H](N)CCCCN)C(=O)N[C@@H](Cc1c[nH]c2ccccc12)C(=O)N[C@H](Cc1ccccc1)C(=O)N[C@@H](CCCCN)C(N)=O)”, the “Unstimulated GH release from rats” value turned out to be 616 ± 169 ng/mL (peptide 3 μg i.v.), 847 ± 17 ng/mL (peptide 10 μg i.v.), 629 ± 146 ng/mL (peptide 30 μg i.v.) and 228 ± 45 ng/mL (peptide 100 μg i.v.).

Turning to “DThr-DαNal-DTrp-DPro-Arg-NH2 ([dT][d1Nal][dW][dP]R-NH2; N-terminus assumed; SMILES C[C@H](O)[C@@H](N)C(=O)N[C@H](Cc1cccc2ccccc12)C(=O)N[C@H](Cc1c[nH]c2ccccc12)C(=O)N1CCC[C@@H]1C(=O)N[C@@H](CCCNC(=N)N)C(N)=O)”, the “Unstimulated Basal GH release from rats” value is, setting by setting: under setting [5], 60 ± 5 ng/mL; under setting [6], 130 ± 24 ng/mL; under setting [7], 134 ± 31 ng/mL.

On to “DcyclohexylAla-Ala-Phe-DTrp-Lys-NH2 ([dCha]AF[dW]K-NH2; N-terminus assumed; SMILES C[C@H](NC(=O)[C@H](N)CC1CCCCC1)C(=O)N[C@@H](Cc1ccccc1)C(=O)N[C@H](Cc1c[nH]c2ccccc12)C(=O)N[C@@H](CCCCN)C(N)=O)”, for which the “Unstimulated Basal GH Release from rat” value was 199 ± 63 ng/mL (peptide alone 1 μg i.v.); 266 ± 68 ng/mL (peptide alone 3 μg i.v.); 199 ± 23 ng/mL (peptide alone 10 μg i.v.); 346 ± 82 ng/mL (peptide alone 30 μg i.v.); 350 ± 61 ng/mL (peptide alone 100 μg i.v.).

In the case of “DcyclohexylAla-Ala-Trp-DPhe-NH2 ([dCha]AW[dF]-NH2; N-terminus assumed; SMILES C[C@H](NC(=O)[C@H](N)CC1CCCCC1)C(=O)N[C@@H](Cc1c[nH]c2ccccc12)C(=O)N[C@H](Cc1ccccc1)C(N)=O)”, the “Unstimulated Basal GH Release from rat” value is 181 ± 28 ng/mL (peptide alone 3 μg i.v.), 237 ± 18 ng/mL (peptide alone 10 μg i.v.), 354 ± 81 ng/mL (peptide alone 30 μg i.v.) and 771 ± 76 ng/mL (peptide alone 100 μg i.v.).

Turning to “DβNal-Ala-Trp-DPhe-Ala-NH2 ([d2Nal]AW[dF]A-NH2; N-terminus assumed; SMILES C[C@H](NC(=O)[C@@H](Cc1ccccc1)NC(=O)[C@H](Cc1c[nH]c2ccccc12)NC(=O)[C@H](C)NC(=O)[C@H](N)Cc1ccc2ccccc2c1)C(N)=O)”, the “Unstimulated Basal GH Release from rat” value (peptide alone 1 μg i.v.) stood at 623 ± 60 ng/mL, the “Unstimulated Basal GH Release from rat” value (peptide alone 3 μg i.v.) was 694 ± 70 ng/mL, the “Unstimulated Basal GH Release from rat” value (peptide alone 10 μg i.v.) was 654 ± 58 ng/mL and the “Unstimulated Basal GH Release from rat” value (peptide alone 30 μg i.v.) came to 713 ± 71 ng/mL.

In the case of “DβNal-Ala-Trp-DPhe-Leu-NH2 ([d2Nal]AW[dF]L-NH2; N-terminus assumed; SMILES CC(C)C[C@H](NC(=O)[C@@H](Cc1ccccc1)NC(=O)[C@H](Cc1c[nH]c2ccccc12)NC(=O)[C@H](C)NC(=O)[C@H](N)Cc1ccc2ccccc2c1)C(N)=O)”, the “Unstimulated Basal GH Release from rat” value worked out at 253 ± 79 ng/mL (peptide alone 3 μg i.v.), 277 ± 43 ng/mL (peptide alone 10 μg i.v.), 347 ± 66 ng/mL (peptide alone 30 μg i.v.) and 645 ± 117 ng/mL (peptide alone 100 μg i.v.).

On to “Glyψ[CH2NH]-DβNal-Ala-Trp-DPhe-Lys-NH2 (G[d2Nal]AW[dF]K-NH2; also: reduced Gly-ψ[CH2NH] bond between Gly1 and DβNal2)”, for which the “Stimulated GH release from rat” value was 1112 ± 200 ng/mL (Table 2, peptide antagonist 10 μg i.v. + stimulator DAla-DβNal-Ala-Trp-DPhe-Lys-NH2 0.3 μg); 2307 ± 176 ng/mL and 1842 ± 454 ng/mL under setting [2]; 578 ± 82 ng/mL under setting [1]; 890 ± 236 ng/mL and 1135 ± 140 ng/mL under setting [3].
